Laboratory results published in paper PMC9335043, “The novel ZmTCP7 transcription factor targets AGPase-encoding gene ZmBt2 to regulate storage starch accumulation in maize”.

B1: PWT (ZmBt2 promoter 30 bp probe) (dsDNA)
DNA 1: CACACTTTAGAACCCCACGCCTTTACCTAA
DNA 2: TTAGGTAAAGGCGTGGGGTTCTAAAGTGTG
B2: PMu (mutated ZmBt2 promoter 30 bp probe) (dsDNA)
DNA 1: CACACTTTAGAAAAAACAGCCTTTACCTAA
DNA 2: TTAGGTAAAGGCTGTTTTTTCTAAAGTGTG
B3: unlabeled WT 30 bp competitor (dsDNA)
DNA 1: B1 DNA 1
DNA 2: B1 DNA 2

Tests used:
GST-ZmTCP7 [1] = target: T1, GST-ZmTCP7 (Zea mays, UniProt B4FHV6 1-275); assay: EMSA; LightShift chemiluminescent EMSA kit buffer (composition and pH not stated), 25 C, 30 min, 8% PAGE; conditions: protein: recombinant; tags: N-terminal GST (pGEX-6-1); chain copies: 2; label: 3' biotin
T1 sequence: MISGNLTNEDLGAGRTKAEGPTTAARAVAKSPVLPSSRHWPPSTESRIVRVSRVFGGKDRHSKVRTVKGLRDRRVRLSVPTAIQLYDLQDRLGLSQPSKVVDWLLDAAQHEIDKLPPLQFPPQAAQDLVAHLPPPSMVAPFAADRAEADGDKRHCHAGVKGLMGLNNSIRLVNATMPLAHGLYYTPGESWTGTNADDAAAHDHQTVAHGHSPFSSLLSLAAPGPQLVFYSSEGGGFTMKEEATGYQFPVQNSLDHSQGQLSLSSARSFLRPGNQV

GST-ZmTCP7 [2] = target: T1, GST-ZmTCP7; assay: competition; unlabeled competitor vs PWT: considerably reduced at 50x, almost completely removed at 100x; LightShift chemiluminescent EMSA kit buffer (composition and pH not stated), 25 C, 30 min, 8% PAGE; conditions: protein: recombinant; tags: N-terminal GST (pGEX-6-1); chain copies: 2

Row | Binder | binding result (GST-ZmTCP7 [1]) | binding result (GST-ZmTCP7 [2])
1 | B1 | binds | –
2 | B2 | no binding | –
3 | B3 | – | binds
